Patent publication US11441147B2 (priority 2013, dated 2022)
Like-named read-outs stand apart in the source and are kept apart here.

B1: CYP3RNA: 791 bp dsRNA complementary to all three Fg CYP51 genes, from stacked clone CYP51B-CYP51A-CYP51C; SEQ ID NO:7 (nucleic acid)
DNA: CAGCAAGTTTGACGAGTCCCTGGCCGCTCTCTACCACGACCTCGATATGGGCTTCACCCCCATCAACTTCATGCTTCACTGGGCCCCTCTCCCCTGGAACCGTAAGCGCGACCACGCCCAGCGCACTGTTGCCAAGATCTACATGGACACTATCAAGGAGCGCCGCGCCAAGGGCAACAACGAATCCGAGCATGACATGATGAAGCACCTTATGAACTCTCCATGGCGGCCGCGGGAATTCGATATCGGTCCATTGACAATCCCCGTCTTTGGTAGCGATGTCGTATACGATTGTCCCAACTCGAAGCTCATGGAACAAAAGAAGTTTGTCAAGTTTGGCCTTACGCAAAAAGCACTCGAGTCACACGTCCAGTTAATCGAGCGAGAGGTTCTTGACTACGTCGAAACTGATCCATCCTTTTCTGGCAGAACTAGCACCATCGATGTCCCCAAGGCAATGGCTGAGATAACAATCTTTACTGCCTCACGTTCTTTGCAGGGTGAGGAAGTTCGGAGAAAACTCACTGCCGAGTTTGCTGCCACTAGTATTGGAAGCACCGTACAATATGGCATCGACCCGTACGCTTTTTTCTTCGACTGCAGAGATAAATACGGCGACTGCTTTACCTTTATTCTCCTTGGCAAATCAACGACTGTCTTTCTTGGTCCCAAGGGCAATGACTTTATCCTCAACGGCAAACACGCCGATCTCAACGCCGAGGACGTTTATGGGAAACTTACCACGCCCGTGTTTGGTGAGGAGGTTGTTTATGACTGCTCCAATG
modifications: combines partial sequences of Fusarium graminearum CYP51B-CYP51A-CYP51C

Assays:
[1] = tested on: Fusarium graminearum (Fg) macroconidia; assay type: cell-based; settings: for Morphology of Fg macroconidia (microscopic analysis): 1.5 μg dsRNA per 100 macroconidia in 100 μl SNA medium
GFP-expressing Fg strain = assay type: in vivo, Fusarium graminearum on Arabidopsis thaliana Col-0; settings: 3 dpi; CYP3RNA-expressing leaves
Fg CYP51B = assay type: in vivo, Fusarium graminearum; settings: 3 dpi; average of lines L1, L8, L10, L11 vs ev control line
CYP51B = assay type: cell-based, Fusarium graminearum; settings: 72 hpt; normalized to beta-tubulin
[2] = tested on: Fusarium graminearum (Fg); assay type: in vivo, Fusarium graminearum on barley; settings: upper part sprayed, lower part inoculated after 2 days; 6 days after inoculation
[3] = tested on: Fusarium graminearum (Fg) macroconidia; assay type: cell-based; settings: 0 hpt and 72 hpt; dose dependent, 75 μg to 1 μg dsRNA
[4] = tested on: Fusarium graminearum (Fg); assay type: in vivo, Fusarium graminearum on barley cultivar Golden Promise; settings: 6 days after inoculation
Fg CYP51A = assay type: in vivo, Fusarium graminearum; settings: 3 dpi; average of lines L1, L8, L10, L11 vs ev control line
Fg CYP51C = assay type: in vivo, Fusarium graminearum; settings: 3 dpi; average of lines L1, L8, L10, L11 vs ev control line
[5] = tested on: siRNAs corresponding to the targeted CYP51 sequences; assay: Northern analysis of siRNAs in Arabidopsis leaves with CYP3RNA as probe; design: species or system Arabidopsis thaliana; settings: Fg-infested and uninfested leaves from CYP3RNA-expressing plants
Experimental: For detecting siRNA, total RNA was extracted from the Arabidopsis lines using TRIzol reagent (Invitrogen) following the manufacturer's protocol. A total of 15 μg total RNA was separated in a 16% polyacrylamide-7 M urea gel, and transferred onto Hybond Nylon membrane (Amersham, UK) using a semidry blotter (BioRad) at constant current (250 mA) for 3 h. The RNA was UV-cross-linked to the membrane at 1200×100 μjoules (UV Stratalinker) energy. The membrane was pre-hybridized for 45 min at 42° C. in 20 ml PerfectHyb-Puffer (Sigma). The complete 791 bp CYP3RNA PCR amplicon was used as a template for random labeling (Random Primer DNA Labeling with Kit, NEB), added to the hybridization buffer, and hybridized overnight at 42° C. The membrane was washed twice at room temperature with 5×SSC+0.01% SDS. The membrane was exposed on phosphorimaging screens (Bio-Rad) and signals were detected using a molecular imager and the Quantity One software (BioRad). A parallel loading of low range RNA marker (Fermentas) was used as size marker.
It was further assessed whether this reduction in Fg CYP51 transcripts was associated with the production of corresponding siRNAs. In Northern analyses using CYP3RNA as the probe, siRNAs corresponding to the targeted CYP51 sequences in both Fg-infested and uninfested leaves from CYP3RNA-expressing plants were detected (FIG. 8). […]

CYP51C = assay type: cell-based, Fusarium graminearum; settings: 72 hpt; normalized to beta-tubulin
[6] = tested on: Fusarium graminearum (Fg); settings: 3 dpi
CYP51A = assay type: cell-based, Fusarium graminearum; settings: 72 hpt; normalized to beta-tubulin

Row | Molecule | Phenotype of Fg macroconidia ([1]; tebuconazole 5 mg/l, 72 h post treatment) | Fungal growth on intact leaves (GFP fluorescence) (GFP-expressing Fg strain) | Reduction of relative transcript level of Fg CYP51B (Fg CYP51B) [%] | CYP51B transcript level vs mock control (CYP51B) | Fungal growth at sprayed upper and unsprayed lower leaf area (relative amount of fungal DNA) [2] | Fungal growth (optical densities of Fg cultures at 600 nm) [3] | Relative amount of fungal DNA (qPCR, normalized to plant ubiquitin DNA) ([4]; vs infected control leaves) | Fungal growth on sprayed leaves (infection symptoms) ([4]; dsRNA 20 ng/μl sprayed 48 h before inoculation, vs buffer or GFP-dsRNA) | Morphology of Fg macroconidia (microscopic analysis) ([1]; 48 h post treatment) | Morphology of Fg macroconidia (microscopic analysis) ([1]; 72 h post treatment) | Reduction of relative transcript level of Fg CYP51A (Fg CYP51A) [%] | Reduction of relative transcript level of Fg CYP51C (Fg CYP51C) [%] | siRNAs corresponding to the targeted CYP51 sequences [5] | CYP51C transcript level vs mock control (CYP51C) | Reduction of fungal mycelium formation on leaves (trypan blue microscopy) ([6]; CYP3RNA-expressing leaves vs Col-0 ev control) [%] | Disease symptoms on detached leaves ([6]; T2 lines L1, L8, L10, L11, 5×10^4 Fg macroconidia per ml) | Percentage of infested leaf area ([6]; four transgenic lines, ev controls 77%) [%] | CYP51A transcript level vs mock control (CYP51A)
1 | CC(C)(C)C(O)(CCc1ccc(Cl)cc1)Cn1cncn1 (stereo not drawn) [tebuconazole, reference compound] | phenotype comparable to that elicited by CYP3RNA treatment |  |  |  |  |  |  |  |  |  |  |  |  |  |  |  |  | 
2 | B1 |  | restricted to the inoculation site | 89 | significantly reduced | observed not only at the CYP3RNA-treated upper leaf area but also at the lower leaf area | strongly inhibited | significantly lower | significant inhibition of fungal growth | swelling of hyphal tips | morphological changes had become more pronounced | 92 | 77 | detected | significantly reduced | ~100 | no disease symptoms | 0.9 | significantly reduced
